B1: GST–RhoE^WT (natural protein, UniProt P61587 1-244, looked up)
chain: MKERRASQKLSSKSIMDPNQNVKCKIVVVGDSQCGKTALLHVFAKDCFPENYVPTVFENYTASFEIDTQRIELSLWDTSGSPYYDNVRPLSYPDSDAVLICFDISRPETLDSVLKKWKGEIQEFCPNTKMLLVGCKSDLRTDVSTLVELSNHRQTPVSYDQGANMAKQIGAATYIECSALQSENSVRDIFHVATLACVNKTNKNVKRNKSQRATKRISHMPSRPELSAVATDLRKDKAKSCTVM
B2: RhoE^1−200 (RhoE-GTP/Mg2+, residues 1–200) (domain or fragment, UniProt P61587 1-200, looked up)
chain: MKERRASQKLSSKSIMDPNQNVKCKIVVVGDSQCGKTALLHVFAKDCFPENYVPTVFENYTASFEIDTQRIELSLWDTSGSPYYDNVRPLSYPDSDAVLICFDISRPETLDSVLKKWKGEIQEFCPNTKMLLVGCKSDLRTDVSTLVELSNHRQTPVSYDQGANMAKQIGAATYIECSALQSENSVRDIFHVATLACVNK
B3: ROCK-I^1−406 (kinase and N-terminal dimerisation domains), His tag cleaved (domain or fragment, UniProt Q13464 1-406, looked up)
chain: MSTGDSFETRFEKMDNLLRDPKSEVNSDCLLDGLDALVYDLDFPALRKNKNIDNFLSRYKDTINKIRDLRMKAEDYEVVKVIGRGAFGEVQLVRHKSTRKVYAMKLLSKFEMIKRSDSAFFWEERDIMAFANSPWVVQLFYAFQDDRYLYMVMEYMPGGDLVNLMSNYDVPEKWARFYTAEVVLALDAIHSMGFIHRDVKPDNMLLDKSGHLKLADFGTCMKMNKEGMVRCDTAVGTPDYISPEVLKSQGGDGYYGRECDWWSVGVFLYEMLVGDTPFYADSLVGTYSKIMNHKNSLTFPDDNDISKEAKNLICAFLTDREVRLGRNGVEEIKRHLFFKNDQWAWETLRDTVAPVVPDLSSDIDTSNFDDLEEDKGEEETFPIPKAFVGNQLPFVGFTYYSNRRYL

The target in data set [1] is His6-ROCK-I^1−406 (purified without cleavage of the His6 tag) (UniProt Q13464 1-406). Put plainly: pull-down.
For data set [2], the target named is B3. Put plainly: crystal structure.
The data set “crystal structure” deals with the molecule itself. Put plainly: crystal structure.

As to B1, the binding result in data set [1] is reported as “binds”.

In the case of B2, the binding result in data set [2] is “binds”.

In general, stoichiometry N refers to a count of units in the complex or per binding partner. Take B3: the “stoichiometry N” value in “crystal structure” was found to be 2.

(Values after article PMC2579254 (The EMBO Journal, 2008).)
